For orientation: half-life means how long it takes for the measured level to halve.

For one assay, the target named is intermediate filament in fixed and permeabilized Xenopus laevis XTC cells (Xenopus laevis). Nature of the assay: single-molecule speckle (SiMS) TIRF imaging of EGFP-fused probe (cell lysate) on fixed, permeabilized XTC cells; exponential fit of speckle lifetimes.
Turning to “Plectin-1 fragment (amino acid residues 3777-4684 of sequence number 8), FLAG-EGFP fused at the N terminus”, the half-life stood at 0.457 s.
Same read-out and setting: the result for “Plectin-1 fragment (amino acid residues 3777-4364 of sequence number 8), FLAG-EGFP fused at the N terminus” reads 0.059 s; that for “Plectin-1 fragment (amino acid residues 4066-4364 of sequence number 8), FLAG-EGFP fused at the N terminus”, 7.7 s.
The substance “Plectin-1 fragment (amino acid residues 4022-4364 of sequence number 8), FLAG-EGFP fused at the N terminus” gave a half-life of 0.103 s.
“Plectin-1 fragment (amino acid residues 3777-4313 of sequence number 8), FLAG-EGFP fused at the N terminus” registered a half-life of 0.052 s.

The target of a further assay is focal adhesion in fixed and permeabilized Xenopus laevis XTC cells (Xenopus laevis). The assay is described as above.
In turn, “Paxillin fragment (amino acid residues 54-557 of sequence number 15), FLAG-EGFP fused at the N terminus” yielded a half-life of 0.246 s.
The substance “Paxillin full length (FL) (full length of sequence number 15, residues 1-557), FLAG-EGFP fused at the N terminus” came in with a half-life of 0.196 s.
Substance “phosphatidylinositol-(4)-phosphate 5-kinase type Iγ-90 (PIPKIγ) fragment (641-668) (sequence number 18), N terminus tagged with FLAG-EGFP” registered a half-life of 0.496 s.
“Paxillin fragment (amino acid residues 54-498 of sequence number 15), FLAG-EGFP fused at the N terminus” had a half-life of 0.091 s.
In turn, “Paxillin fragment (amino acid residues 167-557 of sequence number 15), FLAG-EGFP fused at the N terminus” came in with a half-life of 0.138 s.

In another assay the target is microtubule in fixed and permeabilized Xenopus laevis XTC cells (Xenopus laevis). The description is as above.
In the case of “APC fragment (amino acid residues 2781-2819 of sequence number 14), FLAG-EGFP fused at the N terminus”, the half-life was 0.027 s.
“MAP4 fragment (amino acid residues 659-908 of sequence number 4), FLAG-EGFP fused at the N terminus” displayed a half-life of 0.106 s.
“Tau isoform 3 (full length of sequence number 5, residues 1-383), FLAG-EGFP fused at the N terminus” had a half-life of 0.11 s.
As for “CLIP-170 fragment (amino acid residues 3-309 of sequence number 12), FLAG-EGFP fused at the N terminus”, the half-life was 0.044 s.
In the case of “APC fragment (amino acid residues 2536-2843 of sequence number 14), EGFP-3xFLAG fused at the C terminus”, the half-life worked out at 0.1 s.
Still for that read-out and setting: under “MAP4 fragment (amino acid residues 1-908 of sequence number 4), FLAG-EGFP fused at the N terminus” stands 0.109 s; under “Tau isoform 4 (sequence number 6, residues 1-352), FLAG-EGFP fused at the N terminus”, 0.06 s.

For the origin of these results see US10858688.
